Experimental data taken from the nanobody polyreactivity screen of Harvey et al. (2022).

Assay: yeast display, Sf9 membrane polyspecificity reagent, FACS + sequencing; frameworks hold sequencing errors
How it was run: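 After 36–48 hours of galactose induction, yeast (Saccharomyces cerevisiae BJ5465) displaying a synthetic nanobody library were stained at 4 °C for 1 hour with 10% biotinylated, detergent-solubilized Sf9 membrane reagent. Streptavidin microbeads enriched the stained cells before FACS sorting into low and high (top ~1%) gates on anti-HA and streptavidin fluorescence. Each clone's polyreactivity label reflects its gate of origin.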

Sequence	polyreactivity (PSR sort gate)
QGQLVESGGGLVQAGGSLRLSCAASGSIFWYYAMGGYRQAPGKERELVADITSTGGSTYYADSVKGRFTISRDNAKNTVYLQMNSLKPEDTAVYYCAGEASYHGYYSLGYWGQGTQVTVSS	high polyreactivity
QGQLVESGGGLVQAGGSLRLSCAASGSTFDYYVMGWYRQAPRKERELVAAISSGDSTNYADSVKGRFTISRDNAKNTVYLQMNSLKPEDTAVSYCAAEYTVHYDYWGQGTQVTVSS	low polyreactivity
QGQLVESGGGLVQAGGSLRLSCAASGSTFLHYAMGWYRQAPGKERELVAAISRRGGRTYYADSVKGRFTISRDNAKNTVYLQMNRLKPEDTAVYNCAVDGIRDGYWIFYYWGQGTQVTVSS	low polyreactivity
QGQLVESGGGLVQAGGSLRLSCAASGSTFTYNAMGWYRQAPGKERELVASISSGTTTYYADSVKGRFTISRDNAKNTVYLQMNSLKPEDTAVYYCAVDSWSRVQGWLAHNYDYWGQGTQVTVSS	low polyreactivity
QGQLVESGGGLVQAGGSLRLSCAATGFTFRYYAMGWYRHAPGKERELVATITRGGSTNYADSVKGRFTISRDNAKNTVYLQMNSLKPEDTAVYYCATGKNYWRGYEYWGQGTQVTVSS	low polyreactivity
QGQLVESGGGLVQAGGSLRLSCAAYGSTFYLYPMGRYRQAPGKERELVASISLSGRSTYYADSVKGRFTISRDNAKNTVYLQMNRLKQEDTAVYYCAARRFAYYFQYLGGGYWGQGTQVTVSS	high polyreactivity
QGQLVESGGGLVQAGGSLRLSCAPSGSTVWVNVMGCYSPARGKERELVAAIDSGGSTYYADSVKGRFTISRDKAKNTVYLQMISLKPEDTAVYYCNARVDTPSPYDYWGQGTQVTVSS	low polyreactivity
QGQLVESGGGLVQAGGSLRLSSAASGSTFVYAMGWYRQAPGKERVLVASISWSDSSTYYADSVKGRFTISRDNAKNTVYLQMNSQKREDTAVYYGYADQGTRDSDYWGQGTQGTVSS	low polyreactivity
QGQLVESGGGLVQAGGSRRLSCAASGFIYFNAMGWSRQAPGKEREMVASISYSGGSTYYADSVKGRFTISRDNAKNTVYLQMNSLKPEDTAVYYCAKAFIEPGYKYDSWGQGTQVTVSS	high polyreactivity
QGQLVESGGGLVQEGGILHLTCAASGRIFCYYDMGWSRQEPGKERELVAAISRSGGSTYYADSVKGRFTISRDNAKNTVYLQMNSLKPEDTAVYYCAAEYYGFSWAGYYYWGQGTQVTVSS	high polyreactivity
QGQLVESWGGLVQAGGSLRLSCAASGSTFCDYAMGWYRQAPGQERELVAAIDWSDGSTYYADSVKGRFTSSRDNAKNTGYLQMNSLKPEDTAVYYCAAEQWYGMYYWGQGTQVTVSS	high polyreactivity
QGQLVETGGGLVQAGGSLRLSCAASGSTFSYYAMGWYRQAPGKEREWVAAISRRGGSTYYADSVKGRFTISRDNAKNTVYLQMISLKPEDTAVNYCAADDYYSSRIEYYNWGQGTQVTVSS	high polyreactivity
QGQRVESGGGLGQAGGSLRISCAASGLTFHRYAMGWYRQAQGKETELVAAINYSGGRTYYADSVKGRFTISRDNAKYTVYFQMNSLKPEDTAVYYCNVARWGNIPVGEYDYWGQGTQVTVSS	high polyreactivity
QGQRVESGGGLVQAGGSLLLSCAASGLTFAKYAMGWDRQAPGKERELVSTITWSGATTYYADSVKGRFTISRDYAKNTVYLQMNSLKPEDTAVYYCIADLPVYVDYIIGGYGYWGQGTQVTVSS	low polyreactivity
QGQRVESGGGLVQAGGSLRLSCAASGFIFWDYDMVWYRQAPGKEREMVAAISDSGGDTYYADSVKGRFTISRDNSKNTVYLQMHSLKREDTAVIYCAADVELWVFRGQQFDYWGQGTQVTVSS	low polyreactivity
QGQRVESGGGLVQAGGSLRLSCAASGLIFSRYGMGWYRPARGKDRELVAAISGGGGSTYYADSVKGRFTISRDNAKNTVYLEMNSLKPEDTAVYYCARKYTRKIPASDYWGQGTQVTVSS	high polyreactivity
QGQRVESGGVLVQAGGSLRLRCAASGSTFSRYDMGWYRQAPGKERELVATITRAGRTYYADSVKGRFTISRDNAKNTVYLQMNSLIPEDTAVYYCAAELYYWTYVRFDYWGQGTQVTVSS	low polyreactivity
QHQLEESGGGLVQAGGSLRLSFAAYGFIFGRYTMGWYRQAPVKERELVAAISSRGGSTYYADSVKGGFTISRDYAKYTVYLQMNSLNPEDTAVYSCNALRRPSSEGRDYWGQGTQVTVSS	high polyreactivity
QHQLVESGAALVQAGGSLLVICAASVFTFPFYTMGWYRQAPGKEMELVAAISTSGAGTYYAESVKGRFTISRDNAKNTVYLQMNSLKTEDTAVYYCAAYKRGRREMDYWGQGTQVTVSS	high polyreactivity
QHQLVESGGGLFQAGGSLRLSCAPSGSIIVWNAMGWYRQAPGKERELVASMTSGASTYYADSGKGRVTISRDNAKNTVYLQMNSLKPEDTAVYYCAAYYGYTDGWYLYSGYNYWGQGTQVTVSS	low polyreactivity
QLHLVESGGGLVQAGGSLRLSCAASGRIFFYAMGWYRQAPGKERDLVASITTSGTSTYYADSVKGRFTISRDNSKNTVYLEMNSLKPEDTSVYYCNATSNSIRWYDFYYWGQGTQVTVSS	low polyreactivity
QLQHVESGGCLVQAGASLRLSCAASRLIFFYYAMGWSRQAPGKERELVAAIRTNYADSVKGRITSSRDNAKNTVYLQMNSQKPEDTAVYYCAAESSQSPTSAFDYWGQGTQVTVSA	low polyreactivity

Sequence	polyreactivity (PSR sort gate)
QLQHVESGGGLVQAGGSLRLSCADSGFILYLNAMGWYRQAPGKERELVATITNRGGSTYYADTVKGRFTISRDNAKNTVYLQMNSLKPEDTAVYYCAARTRERYSKPYFYRRFGYWGQGTQVTVSS	low polyreactivity
QLQHVESGGGLVQAGGSLRLTCAASGYTYHGYAMGWYRQAPGKERELVAVITQRGGSTSYADSVKGSFTISRDYAKNNVNLQMKSLKPVDTAVYYCNDSAWLVVARTRYGYWGQGTQVTVSS	low polyreactivity
QLQLEESGGGLVQAGGTLRISCEASGSTFRPYAMGAYRKAPGQEREMVARITGSGDSTYYADSVKGRFTISRDNAQNTVYLQMNSLKPEDNAVYYCARDFDYSLSGFEYWGQGTQVTVSS	low polyreactivity
QLQLLESDGGLVQAGVSLRLSCATSAMTISRYTMGWYRQAPGKARELVAVITYRGGSTYYADSVKGRFTISRDNAKNTVYLQMNSLKPEDTAVYYCAAGRRTYGLTYDYWGQGTQVTVSS	high polyreactivity
QLQLQESGGGLVQAGGSLRLSCAASAFIFARNYMGWYRQAPGKERELVAGIGVGASTNYADSVKGRFTISRDNAKNTVYLQMNSLEPEDTAVYYCAVGDTVLGYHYYWGQGTQVTVSN	low polyreactivity
QLQLQESVGGLVQAGGSLRLSCAAIGNIFPTDRMGWYSQSPGKELEFVATISHGGSTNNADSVKGRFTISRDNGKNTVYLKMNSLKPEVTAVYYCAVWSLGRWRNYYWGQGSQVTVSS	low polyreactivity
QLQLVDSGGGLVQAGGSLRLSCAATGFTFYYYVMGWYRQAPGKETELVAAISSRGGSTYYADSVKGRFTISRDNAKNTVYLQMNSLKPEDTAVYYCAATYWPYRPGYYYWGQGTQVTVSS	high polyreactivity
QLQLVESGAGLVQAGGSLRLSCAASGRIFAYNTMGRYRQAHGKERELVAVITSGGSTNYADYVKGRFTISRDNAKNTVYLQMNSLKPEDTAVYYCAKRPYGGSGGYRYDYWGQGTQVTVSS	high polyreactivity
QLQLVESGGGIVQAGGSLRLSCAASGSIFPYNAMGWYRQAPGKEREFVAAINLSGGSTNYADSVKGRFTISRDNANYTFYLQMNSLKPEDTAVYYCNAPVVYFLPLNFDYWGQGTKVTVSS	low polyreactivity
QLQLVESGGGLDQAGCSLRLSCAASRTIITRNAMGWYRPAPGKESELVASINSGGSTYYADSVKGRFTISRDNAKNTVYLQMNSLKPDDTAVYYCAVEEDRYYYDDYDYWGQGTQVTVSS	low polyreactivity
QLQLVESGGGLDQAGGSLRLSCAASGSIFPGYAMGWYRQAPGKESELVATITWSGGSTYYADSVKGRFTISRDNAKNTVYLQMNSLKPEDTAVYYCNADSNWYYQWNYYGLYDYWGQGTQVTVSS	low polyreactivity
QLQLVESGGGLGQSGGSIRLSCAASGFIFPVYTMGRSRQAPGKERELVAAITQIGGSTHYADSVKGRFTISRDNAKNTVYLQMNSLKPEDTAVYYCNAVPSYGTEYDYWGQGTQVTVSS	low polyreactivity
QLQLVESGGGLLQAGGSLRLSCAASGSTFVSNAMGWYRQAPGKERELVATITTSGGSTYYADSVKGRFRNSRDNAKTTVYLQMNSLNPEDTAVYYCNAVYLFCYSGDLDYWGQGTQVTVSS	low polyreactivity
QLQLVESGGGLVKAGGSLRLSCAASGFIFNCYAMGWNRQAPVKEREMVARISRSGGSTYYADSVKGRFTISRDNAKNTVYLQMNSLKPEDTAVYYCAADYYWSLHQRMDYWGQGTQVTVSS	high polyreactivity
QLQLVESGGGLVQAGGRLRLSCAASGFIFHINARGWYRQAPGKEREFVAAISRSVGSTSYADTVKGRFTNSRDNAKNTVYLLMNSLKPEDTAVYYCNAALRKRKGPYDYWGQGTQVTVSS	high polyreactivity
QLQLVESGGGLVQAGGSLRFSCAASGFTFVWYVRGWYRQAPVKARELVASSTSTGSTNYADSVKGRYTISRDNAKNTVYLQMNSLKPEDTAVYYCNARGSYKRTRYGKWGQGTQVTVSS	high polyreactivity
QLQLVESGGGLVQAGGSLRLICAASGLTFVHYTMGWYRQAPGKERELVAAISWNGASTYYADSVKGRFTISRDNAKNTVDIQMNSLKPEDTAVYYCAAGYAQPRYYTDYYWGEGTQVTVSS	high polyreactivity
QLQLVESGGGLVQAGGSLRLSCAASGFTFSYYAKGWYRQAPGKERELVAAISINGGRTYYADSVKGRFTISRDNAKNTVYLQMNSLKPEDTAVYYCNAVSYAYTVRMDYWGQGTQVTVSS	high polyreactivity
QLQLVESGGGLVQAGGSLRLSCAASGFTFYLYVLGWYRQAPGKEREFVAAITGSGTSTYYADSVKGRFTISRDNAKNTVYLQMNSLKPEDTAVYYCNAKRDRYFYTVKYDYWGQGTQVTVSS	low polyreactivity
QLQLVESGGGLVQAGGSLRLSCAASGFTFYRYAKGWYRQAPGKARELVAAISWSGGTTYFADSVKGRFTISRDNAKNTVYLQMNSLTPEDTAVEYCNARFIARSGYKVDYDYWGQGTQVTVSS	high polyreactivity
QLQLVESGGGLVQAGGSLRLSCAASGGPFRPYAMGWYRQAPGKERELVAAISYTGSTYYADSVKGRFTISRDNAKNTVYLQMNSLKPEDTAVYYCAKDFWYPPRFDYWGQGTQVTVSS	low polyreactivity
